Experimental data reported in patent US20030064921A1, “Methods and compounds for modulating melanocortin receptor ligand binding and activity” (The Regents of the University of California, priority 1999, published 2003).
Where no end group is shown, it is not given here.

Columns and labels:
[1] = target: T1, human MC4r (Homo sapiens, UniProt P32245); assay: Inhibition of NDP-MSH stimulated cAMP generation in HEK-293 cells transfected with human MC4r; format: cell-based; conditions: 5.0×10^−6 M
T1 construct: expressed in transfected cells; host or cells: HEK-293
T1 sequence (P32245 whole entry): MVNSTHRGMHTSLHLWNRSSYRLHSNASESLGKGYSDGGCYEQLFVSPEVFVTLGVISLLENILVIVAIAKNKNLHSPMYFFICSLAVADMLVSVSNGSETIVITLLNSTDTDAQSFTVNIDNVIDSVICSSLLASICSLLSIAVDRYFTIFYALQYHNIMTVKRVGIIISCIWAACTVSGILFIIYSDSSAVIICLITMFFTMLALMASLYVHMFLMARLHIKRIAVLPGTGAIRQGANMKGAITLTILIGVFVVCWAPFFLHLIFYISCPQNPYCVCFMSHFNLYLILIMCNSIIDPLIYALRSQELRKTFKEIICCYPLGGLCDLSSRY
Protocol: Control experiments were performed with no MARP. […] Additional samples for HX experiments were prepared by lyophilization of protonated samples followed by reconstitution in 700 μl D2O.
This experiment measured inhibition of NDP-MSH stimulated cAMP generation in cells transfected with MC4r. A control experiment was conducted with no MARP present.

[2] = target: MC IR (Homo sapiens, UniProt Q01726); assay: Displacement of NDP-MSH at melanocortin receptor (binding)
MC IR, sequence (Q01726 whole entry): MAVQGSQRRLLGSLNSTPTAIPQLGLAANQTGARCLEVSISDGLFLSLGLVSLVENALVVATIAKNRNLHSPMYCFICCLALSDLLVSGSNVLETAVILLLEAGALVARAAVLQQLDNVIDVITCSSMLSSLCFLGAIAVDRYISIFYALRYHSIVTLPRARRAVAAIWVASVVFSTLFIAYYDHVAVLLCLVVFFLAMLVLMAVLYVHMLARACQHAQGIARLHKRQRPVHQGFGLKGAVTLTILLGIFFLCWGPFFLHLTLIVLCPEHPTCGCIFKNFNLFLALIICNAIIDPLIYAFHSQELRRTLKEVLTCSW
Protocol: (§1) Suitable binding assays are well known to those of skill in the art. In a preferred embodiment, the binding assay is a competitive assay that measures the ability of the test composition to displace/compete a reference ligand from a melanocortin receptor. In one preferred approach specific binding of ligands of this invention to cells expressing the MC-3 receptor is determined by competition experiments using labeled (e.g. ^125I-labeled) Nle^4-D-Phe^7-α-MSH (NDP-MSH), as described in Tatro et al. (1990) Cancer Res. 50: 1237-1242).
(§2) The mini-AGRP binding was tested by examining its ability to displace NDP-MSH, a well established high affinity MCR agonist. […] Antagonist activity was then determined using a cAMP assay.

[3] = target: T2, MC3R (Homo sapiens, UniProt P41968); assay: as above
T2 sequence (P41968 whole entry): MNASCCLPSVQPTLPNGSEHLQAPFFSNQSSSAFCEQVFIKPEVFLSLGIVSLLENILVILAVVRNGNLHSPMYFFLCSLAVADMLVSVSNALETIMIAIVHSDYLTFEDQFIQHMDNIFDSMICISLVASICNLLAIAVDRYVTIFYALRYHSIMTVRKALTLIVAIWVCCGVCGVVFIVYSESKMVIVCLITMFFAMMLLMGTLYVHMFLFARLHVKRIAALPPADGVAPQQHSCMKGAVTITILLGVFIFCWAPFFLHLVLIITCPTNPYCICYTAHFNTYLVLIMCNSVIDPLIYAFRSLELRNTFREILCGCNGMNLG
Protocol: as §1, §2

[4] = target: T3, MC4R (Homo sapiens, UniProt P32245); assay: as above
T3 sequence (P32245 whole entry): as the sequence (P32245 whole entry) above
Protocol: as §1, §2

[5] = target: MC5R (Homo sapiens, UniProt P33032); assay: as above
MC5R, sequence (P33032 whole entry): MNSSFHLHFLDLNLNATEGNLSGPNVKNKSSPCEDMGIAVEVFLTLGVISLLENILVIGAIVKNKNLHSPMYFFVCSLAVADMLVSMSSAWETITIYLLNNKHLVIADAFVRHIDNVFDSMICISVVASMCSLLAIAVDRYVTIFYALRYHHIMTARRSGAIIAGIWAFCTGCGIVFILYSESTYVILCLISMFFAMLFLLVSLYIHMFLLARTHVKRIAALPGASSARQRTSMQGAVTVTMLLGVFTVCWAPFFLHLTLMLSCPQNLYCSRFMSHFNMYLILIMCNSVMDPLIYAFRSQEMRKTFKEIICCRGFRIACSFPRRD
Protocol: as §1, §2

[6] = target: T2, MC3R; assay: cAMP assay, suppression of α-MSH stimulated cAMP production; format: cell-based
Text: (§3) Preferred assays measure, directly, or indirectly, melanocortin receptor induced changes in intracellular cAMP concentrations. One such assay measures the ability of cAMP to displace (8-^3H) cAMP from a high affinity cAMP binding protein (see Gilman (1979) Proc. Natl. Acad. Sci., USA, 67: 305-312). Briefly, test cells are exposed to the ligands to be screened. Following treatment, the cells are washed twice with phosphate buffered saline and intracellular cAMP extracted by lysing the cells with 1 mL of 60% ethanol. The assay is then run as described by Gilman, supra.).
as §2

[7] = target: T3, MC4R; assay: as above; format: cell-based
Text: as §3, §2

[8] = target: T4, human melanocortin receptor 4 (human, UniProt P32245 1-332); assay: displacement of NDP-MSH from the receptor
T4 construct: whole, on cells; also called MC4r; MC4R
T4 sequence (P32245 whole entry): as the sequence (P32245 whole entry) above

[9] = target: T2, MC3R; conditions: versus agouti; cited from earlier work
[10] = target: T3, MC4R; conditions: versus agouti; cited from earlier work

Molecule: MARP with Arg-25 to Ala substitution: MARP single mutant with Arg-25 replaced by Ala in the active loop, chemically synthesized (Ac-CVRLHESCLGQQVPCCDPCATCYCAFFNAFCYCRKLGTAMNPCSRT; disulfide (positions not given here))
- inhibition of NDP-MSH stimulated cAMP generation [1]: complete loss of inhibitory activity

Molecule: Ac-CVRLHESCLGQQVPCCDPAATCYCRFFNAFCYCR-NH2 (disulfide (positions not given here); not fully specified (bridges); printed as Ac-CVRLHESCLGQQVPCCDPAATCYCRFFNAFCYCR-NH2) [mini-AGRP]
- displacement of NDP-MSH, potency compared with AGRP(87-132) [2]: potency equivalent to that of AGRP(87-132)
- displacement of NDP-MSH, potency compared with AGRP(87-132) [3]: potency equivalent to that of AGRP(87-132)
- displacement of NDP-MSH, potency compared with AGRP(87-132) [4]: potency equivalent to that of AGRP(87-132)
- displacement of NDP-MSH, potency compared with AGRP(87-132) [5]: potency equivalent to that of AGRP(87-132)
- antagonist activity: suppression of α-MSH stimulated cAMP production [6]: potent activity
- antagonist activity: suppression of α-MSH stimulated cAMP production [7]: potent activity

B1: mini-AGRP Ac-CVRLHESCLGQQVPCCDPAATCYCRFFNAFCYCR-NH2 (peptide)
peptide: Ac-CVRLHESCLGQQVPCCDPAATCYCRFFNAFCYCR-NH2
modifications: disulfide (positions not given here); not fully specified (bridges); printed as Ac-CVRLHESCLGQQVPCCDPAATCYCRFFNAFCYCR-NH2; also: four disulfide bonds, pairing not given here
notes: Fmoc solid-phase synthesis, folded under oxidizing conditions
- binding result [8]: binds

B2: AGRP: human AGRP is a 132 residue polypeptide (SEQ ID NO:1), natural antagonist of melanocortin receptors 3 and 4 (protein, listed as Homo sapiens)
chain: MLTAAVLSCALLLALPATRGAQMGLAPMEGIRRPDQALLPELPGLGLRAPLKKTTAEQAEEDLLQEAQALAEVLDLQDREPRSSRRCVRLHESCLGQQVPCCDPCATCYCRFFNAFCYCRKLGTAMNPCSRT
- binding affinity greater than agouti [9]: approximately 100 fold
- binding affinity greater than agouti [10]: approximately 100 fold
